In patent US20150132307A1:

Columns and labels:
[1] = target: recombinant human IL-17 (Peprotech #200-17) (human) (UniProt Q16552); assay: cell-based or functional assay
[2] = target: recombinant human IL-17 (Peprotech #200-17) (human) (UniProt Q16552); assay: ELISA, coated IL-17 subtype 0.5 µg/ml, antibody 10 µg/ml, OD 405/492 nm
[3] = target: cynomolgous IL-17A (cynomolgous); assay: binding ELISA according to example 2; mouse IL17 antibodies compared (Mab 317 = 100)
[4] = target: recombinant human IL-17 (Peprotech #200-17) (human) (UniProt Q16552); assay: as above
[5] = target: Human IL17B (human) (UniProt Q9UHF5); assay: ELISA, coated IL-17 subtype, antibody 10 µg/ml, OD 405/492 nm
Chain of Human IL17B (human) (Q9UHF5 21-180 limits assumed): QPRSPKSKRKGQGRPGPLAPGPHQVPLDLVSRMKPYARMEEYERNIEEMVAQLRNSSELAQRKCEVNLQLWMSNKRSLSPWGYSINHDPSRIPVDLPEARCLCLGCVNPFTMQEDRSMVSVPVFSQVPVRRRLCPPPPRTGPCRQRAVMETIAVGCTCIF

[6] = target: Human IL17C (human) (UniProt Q9P0M4); assay: as above
Chain of Human IL17C (human) (Q9P0M4 19-197 limits assumed): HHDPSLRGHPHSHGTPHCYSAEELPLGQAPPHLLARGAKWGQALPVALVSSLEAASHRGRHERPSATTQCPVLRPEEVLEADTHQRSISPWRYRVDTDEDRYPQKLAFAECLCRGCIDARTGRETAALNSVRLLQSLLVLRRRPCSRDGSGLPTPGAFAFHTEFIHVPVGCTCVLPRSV

[7] = target: Human IL17D (human) (UniProt Q8TAD2); assay: as above
Chain of Human IL17D (human) (Q8TAD2 16-202 limits assumed): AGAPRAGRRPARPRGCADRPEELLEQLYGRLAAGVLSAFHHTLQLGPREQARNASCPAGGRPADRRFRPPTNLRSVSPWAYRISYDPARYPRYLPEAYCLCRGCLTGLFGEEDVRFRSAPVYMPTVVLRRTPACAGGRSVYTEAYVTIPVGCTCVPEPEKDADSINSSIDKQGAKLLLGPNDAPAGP

[8] = target: Human IL17E (human) (UniProt Q9H293); assay: as above
Chain of Human IL17E (human) (Q9H293 33-177 limits assumed): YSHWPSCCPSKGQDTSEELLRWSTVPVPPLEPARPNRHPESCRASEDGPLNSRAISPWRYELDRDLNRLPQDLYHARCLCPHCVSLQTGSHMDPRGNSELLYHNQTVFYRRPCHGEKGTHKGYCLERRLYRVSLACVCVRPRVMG

[9] = target: Human IL17F (human) (UniProt Q96PD4); assay: as above
Chain of Human IL17F (human) (Q96PD4 31-163 limits assumed): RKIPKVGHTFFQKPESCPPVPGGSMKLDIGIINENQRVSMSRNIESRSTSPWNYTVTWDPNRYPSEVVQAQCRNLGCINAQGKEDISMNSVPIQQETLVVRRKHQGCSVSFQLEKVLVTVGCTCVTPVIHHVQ

[10] = target: cynomolgous IL-17A (cynomolgous); assay: binding ELISA according to example 2; human and humanized IL17 antibodies compared (NVP-AIN-497 = 100)
[11] = target: recombinant human IL-17 (Peprotech #200-17) (human) (UniProt Q16552); assay: as above

Chain of recombinant human IL-17 (Peprotech #200-17) (human) (Q16552 20-155 limits assumed): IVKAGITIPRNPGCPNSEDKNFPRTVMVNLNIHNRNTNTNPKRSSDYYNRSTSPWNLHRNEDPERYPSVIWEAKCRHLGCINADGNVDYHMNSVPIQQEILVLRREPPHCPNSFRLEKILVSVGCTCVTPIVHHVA

IL-6 Inhibition IC50 (nM) (CCD-25SK cells, IL-17A + TNF-alpha) [1]	Binding (IL-17A binding set as 100) (% of IL-17A binding) [2]	Relative binding to cynomolgous IL-17A in % [3]	Relative binding to human IL-17A in % [4]	Binding (IL-17A binding set as 100) (% of IL-17A binding) [5]	Binding (IL-17A binding set as 100) (% of IL-17A binding) [6]	Binding (IL-17A binding set as 100) (% of IL-17A binding) [7]	Binding (IL-17A binding set as 100) (% of IL-17A binding) [8]	Binding (IL-17A binding set as 100) (% of IL-17A binding) [9]	Relative binding to cynomolgous IL-17A [10]	Relative binding to human IL-17A [11]	Substance
2.8 nM	100	–	–	–	–	–	–	–	–	–	MAB 317 of R&D Systems (antibody)
–	–	124%	122%	–	–	–	–	–	–	–	eBio64CAP17 (antibody)
–	100	–	–	7	97	6	5	5	–	–	Mab 16-7178-85 of eBioscience (antibody)
–	100	–	–	2	2	–	3	62	100%	100%	NVP-AIN-497 (WO 2006/013107) (antibody)
